Experimental data as given in US20170233781.

Columns and labels:
[1] = system: LPETA sorting signal (SEQ ID NO:29)
[2] = molecular target: T1, RLSRR substrate (SEQ ID NO:41)
T1 chain: RLSRR

[3] = molecular target: T2, SLRRR substrate (SEQ ID NO:49)
T2 chain: SLRRR

[4] = molecular target: T3, RLLPR substrate (SEQ ID NO:40)
T3 chain: RLLPR

[5] = molecular target: T4, RLRPR substrate (SEQ ID NO:39)
T4 chain: RLRPR

[6] = molecular target: T5, LQPRA substrate (SEQ ID NO:51)
T5 chain: LQPRA

[7] = molecular target: T6, PLVPR substrate (SEQ ID NO:48)
T6 chain: PLVPR

[8] = molecular target: T7, VARRD substrate (SEQ ID NO:14)
T7 chain: VARRD

[9] = molecular target: T8, PLLPR substrate (SEQ ID NO:42)
T8 chain: PLLPR

[10] = molecular target: T9, ALLPR substrate (SEQ ID NO:46)
T9 chain: ALLPR

[11] = molecular target: T10, PLLAR substrate (SEQ ID NO:47)
T10 chain: PLLAR

[12] = molecular target: T11, LLCKR substrate (SEQ ID NO:50)
T11 chain: LLCKR

[13] = molecular target: T12, PLRPR substrate (SEQ ID NO:44)
T12 chain: PLRPR

[14] = molecular target: T13, PLLRR substrate (SEQ ID NO:43)
T13 chain: PLLRR

[15] = molecular target: T14, LRPRA substrate (SEQ ID NO:37)
T14 chain: LRPRA

[16] = molecular target: T15, RLTPR substrate (SEQ ID NO:31)
T15 chain: RLTPR

[17] = molecular target: T16, RLAPR substrate (SEQ ID NO:45)
T16 chain: RLAPR

[18] = molecular target: T17, ALSRR substrate (SEQ ID NO:38)
T17 chain: ALSRR

RRRRR substrate = molecular target: T18, RRRRR substrate
T18 chain: RRRRR

[19] = molecular target: T19, ALARR substrate (SEQ ID NO:36)
T19 chain: ALARR

[20] = molecular target: T20, SPAKR substrate (SEQ ID NO:32)
T20 chain: SPAKR

[21] = molecular target: T21, ENLYFQS substrate (SEQ ID NO:8)
T21 chain: ENLYFQS

[22] = molecular target: T22, ENLYFES substrate (SEQ ID NO:1)
T22 chain: ENLYFES

Molecule: SrtA from S. pyogenes (residues 81-249)
- sortase transpeptidation in yeast ER (FACS, HA-FITC against FLAG-PE) [1]: A positive signal resulted in an increase in HA-FITC signal and decrease in FLAG-PE signal (FIG. 6B), in comparison to the negative control (FIG. 6A)

B1: Kex2 convertase (endogenous, yeast secretory pathway of Saccharomyces cerevisiae EBY100) (protein)
chain: APPMDSSLLPVKEAEDKLSINDPLFERQWHLVNPSFPGSDINVLDLWYNNITGAGVVAAIVDDGLDYENEDLKDNFCAEGSWDFNDNTNLPKPRLSDDYHGTRCAGEIAAKKGNNFCGVGVGYNAKISGIRILSGDITTEDEAASLIYGLDVNDIYSCSWGPADDGRHLQGPSDLVKKALVKGVTEGRDSKGAIYVFASGNGGTRGDNCNYDGYTNSIYSITIGAIDHKDLHPPYSEGCSAVMAVTYSSGSGEYIHSSDINGRCSNSHGGTSAAAPLAAGVYTLLLEANPNLTWRDVQYLSILSAVGLEKNADGDWRDSAMGKKYSHRYGFGKIDAHKLIEMSKTWENVNAQTWFYLPTLYVSQSTNSTEETLESVITISEKSLQDANFKRIEHVTVTVDIDTEIRGTTTVDLISPAGIISNLGVVRPRDVSSEGFKDWTFMSVAHWGENGVGDWKIKVKTTENGHRIDFHSWRLKLFGESIDSSKTETFVFGNDKEEVEPAATESTVSQYSASSTSISISATSTSSISIGVETSAIPQTTTASTDPDSDPNTPKKLSSPRQAMHYFLTIFLIGATFLVLYFMFFMKSRRRIRRSRAETYEFDIIDTDSEYDSTLDNGTSGITEPEEVEDFDFDLSDEDHLASLSSSENGDAEHTIDSVLTNENPFSDPIKQKFPNDANAESASNKLQELQPDVPPSSGRS
- substrate cleavage in EBY100 against EBY100^Kex2- (two-colour FACS, FLAG-PE/HA-FITC) [2]: ✓
- substrate cleavage in EBY100 against EBY100^Kex2- (two-colour FACS, FLAG-PE/HA-FITC) [3]: ✓
- substrate cleavage in EBY100 against EBY100^Kex2- (two-colour FACS, FLAG-PE/HA-FITC) [4]: ✓
- substrate cleavage in EBY100 against EBY100^Kex2- (two-colour FACS, FLAG-PE/HA-FITC) [5]: ✓
- substrate cleavage in EBY100 against EBY100^Kex2- (two-colour FACS) [6]: efficient cleavage in the EBY100 and non-cleavage in the EBY100^Kex2- strain
- substrate cleavage in EBY100 against EBY100^Kex2- (two-colour FACS, FLAG-PE/HA-FITC) [7]: ✓
- substrate cleavage in EBY100 against EBY100^Kex2- (two-colour FACS) [8]: All three substrates exhibited cleavage in EBY100 and non-cleavage in EBY100^Kex2-
- substrate cleavage in EBY100 against EBY100^Kex2- (two-colour FACS, FLAG-PE/HA-FITC) [9]: ✓
- substrate cleavage in EBY100 against EBY100^Kex2- (two-colour FACS, FLAG-PE/HA-FITC) [10]: ✓
- substrate cleavage in EBY100 against EBY100^Kex2- (two-colour FACS, FLAG-PE/HA-FITC) [11]: ✓
- substrate cleavage in EBY100 against EBY100^Kex2- (two-colour FACS) [12]: All three substrates exhibited cleavage in EBY100 and non-cleavage in EBY100^Kex2-
- substrate cleavage in EBY100 against EBY100^Kex2- (two-colour FACS, FLAG-PE/HA-FITC) [13]: ✓
- substrate cleavage in EBY100 against EBY100^Kex2- (two-colour FACS, FLAG-PE/HA-FITC) [14]: ✓
- substrate cleavage in EBY100 against EBY100^Kex2- (two-colour FACS, FLAG-PE/HA-FITC) [15]: ✓
- substrate cleavage in EBY100 against EBY100^Kex2- (two-colour FACS, FLAG-PE/HA-FITC) [16]: ✓
- substrate cleavage in EBY100 against EBY100^Kex2- (two-colour FACS, FLAG-PE/HA-FITC) [17]: ✓
- substrate cleavage in EBY100 against EBY100^Kex2- (two-colour FACS, FLAG-PE/HA-FITC) [18]: ✓
- substrate cleavage in EBY100 against EBY100^Kex2- (RRRRR substrate): the RRRRR was also found to be only cleaved in the EBY100 and not in the EBY100^Kex2-
- substrate cleavage in EBY100 against EBY100^Kex2- (two-colour FACS, FLAG-PE/HA-FITC) [19]: ✓
- substrate cleavage in EBY100 against EBY100^Kex2- (two-colour FACS) [20]: All three substrates exhibited cleavage in EBY100 and non-cleavage in EBY100^Kex2-

B2: wild-type tobacco etch mosaic virus protease (TEV-P) (protein)
chain: GESLFKGPRDYNPISSTICHLTNESDGHTTSLYGIGFGPFIITNKHLFRRNNGTLLVQSLHGVFKVKNTTTLQQHLIDGRDMIIIRMPKDFPPFPQKLKFREPQREERICLVTTNFQTKSMSSMVSDTSCTFPSSDGIFWKHWIQTKDGQCGSPLVSTRDGFIVGIHSASNFTNTNNYFTSVPKNFMELLTNQEAQQWVSGWRLNADSVLWGGHKVFMSKPEEPFQPVKEATQLMNELVYSQFEHDEL
- enrichment of cleaved substrate sequences after FACS sorting (YESS with NextGen sequencing) [21]: significant enrichments of the ENLYFQS (SEQ ID NO:8) sequence were observed for the wide-type TEV-P

B3: engineered TEV protease variant TEV-PE10 (S120R, D148R, T173A, N177K, M218I) (protein)
chain: GESLFKGPRDYNPISSTICHLTNESDGHTTSLYGIGFGPFIITNKHLFRRNNGTLLVQSLHGVFKVKNTTTLQQHLIDGRDMIIIRMPKDFPPFPQKLKFREPQREERICLVTTNFQTKRMSSMVSDTSCTFPSSDGIFWKHWIQTKRGQCGSPLVSTRDGFIVGIHSASNFANTNKYFTSVPKNFMELLTNQEAQQWVSGWRLNADSVLWGGHKVFISKPEEPFQPVKEATQLMNELVYSQFEHDEL
- enrichment of cleaved substrate sequences after FACS sorting (YESS with NextGen sequencing) [22]: significant enrichments of the ... ENLYFES (SEQ ID NO:1) sequence for the engineered TEV-PE10
